Results on one molecule are retold here after patent US20240035010, “COMPOSITIONS COMPRISING A VARIANT POLYPEPTIDE AND USES THEREOF” (Arbor Biotechnologies, Inc., published 2024).

The target of data set [1] is T1, variant nuclease K35G combination (P14R, D32R, I61R, E311R, K35G).
T1 chain: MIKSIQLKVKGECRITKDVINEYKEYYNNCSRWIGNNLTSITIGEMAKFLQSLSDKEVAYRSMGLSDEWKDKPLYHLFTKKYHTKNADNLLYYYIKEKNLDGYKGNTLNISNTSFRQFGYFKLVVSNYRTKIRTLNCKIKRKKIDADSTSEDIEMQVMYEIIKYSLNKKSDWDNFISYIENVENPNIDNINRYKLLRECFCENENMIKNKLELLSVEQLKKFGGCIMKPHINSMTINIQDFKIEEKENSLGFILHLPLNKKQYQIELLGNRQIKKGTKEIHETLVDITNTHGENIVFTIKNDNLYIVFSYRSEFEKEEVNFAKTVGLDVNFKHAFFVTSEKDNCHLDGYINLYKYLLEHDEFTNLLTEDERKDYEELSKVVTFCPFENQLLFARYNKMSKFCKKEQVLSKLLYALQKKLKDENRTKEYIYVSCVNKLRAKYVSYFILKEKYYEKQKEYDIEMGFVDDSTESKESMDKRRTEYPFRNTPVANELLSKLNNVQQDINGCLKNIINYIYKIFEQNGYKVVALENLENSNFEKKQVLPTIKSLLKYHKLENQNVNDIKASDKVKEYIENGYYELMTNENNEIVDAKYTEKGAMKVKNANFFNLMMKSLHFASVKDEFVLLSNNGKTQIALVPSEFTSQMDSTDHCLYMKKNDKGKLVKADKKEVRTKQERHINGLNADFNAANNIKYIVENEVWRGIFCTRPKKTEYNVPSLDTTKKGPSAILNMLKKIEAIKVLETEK
The experiment in a line: cell_activity; PAM 5'-TTTA-3'. As to conditions: tags: pcDNA3.1 expression. In outline: (§1)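 HEK293T cells were lipofected with nuclease plasmid (pcDNA3.1 backbone) plus RNA guide plasmid, with guide omitted in negative controls. After ~72 h cells were lysed in QuickExtract and % indels were derived from NGS reads, averaged over two bioreplicates and two technical replicates.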

Data set [2] concerns the target T2, variant nuclease 7 substitutions D590G/E154G/E736G (P14R, D32R, I61R, E311R, D590G, E154G, E736G).
T2 chain: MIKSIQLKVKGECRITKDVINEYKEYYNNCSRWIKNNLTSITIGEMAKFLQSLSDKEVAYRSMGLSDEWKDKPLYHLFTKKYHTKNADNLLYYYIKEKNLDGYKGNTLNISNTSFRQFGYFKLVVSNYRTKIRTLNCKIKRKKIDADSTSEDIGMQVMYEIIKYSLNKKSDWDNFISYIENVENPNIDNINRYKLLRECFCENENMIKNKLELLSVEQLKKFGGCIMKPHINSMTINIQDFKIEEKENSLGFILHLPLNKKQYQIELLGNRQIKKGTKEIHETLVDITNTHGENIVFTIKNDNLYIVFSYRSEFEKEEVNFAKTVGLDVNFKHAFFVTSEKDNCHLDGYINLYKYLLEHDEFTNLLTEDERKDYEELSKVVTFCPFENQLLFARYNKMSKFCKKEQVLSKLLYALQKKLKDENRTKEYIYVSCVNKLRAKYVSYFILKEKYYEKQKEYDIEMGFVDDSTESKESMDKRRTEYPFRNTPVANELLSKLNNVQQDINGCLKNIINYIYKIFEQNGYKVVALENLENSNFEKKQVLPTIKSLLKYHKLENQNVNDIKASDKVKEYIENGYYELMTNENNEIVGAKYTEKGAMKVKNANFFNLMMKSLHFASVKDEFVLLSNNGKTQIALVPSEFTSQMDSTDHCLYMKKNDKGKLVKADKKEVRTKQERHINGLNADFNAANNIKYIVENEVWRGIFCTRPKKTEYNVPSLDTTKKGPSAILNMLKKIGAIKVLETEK
The experiment in a line: cell_activity; PAM 5'-TTTA-3'. As to conditions: tags: pcDNA3.1 expression. In outline: as §1

B1: VEGFA crRNA ; VEGFA target (ssRNA ; dsDNA)
RNA: CUUGUUGUAUAUGUCCUUUUAUAGGUAUUAAACAACUCCAGACCACCAAUGGGCAC
DNA 1: TCCAGACCACCAATGGGCAC
DNA 2: GTGCCCATTGGTGGTCTGGA
For B1, the values for the indel activity in data set [1] and in data set [2] were 2.69 fold of WT and 3.13 fold of WT, respectively.
